From patent US20250326865A1, “C-MET PROTEIN-BINDING PEPTIDE COMPLEX” (PeptiDream Inc., priority 2021, published 2025) come the findings set out here.

Starred links: 1 amine or outer side, 2 acyl side, 3 side chain; linkers in the order of their positions; H or OH if unused. Positions of bridges follow the written chain, without caps; N, C: chain ends. Non-standard residues stand in square brackets, D forms with d. Chains are numbered I, II in the order given. No end group written: not given here. CO(CH2)2(OCH2CH2)17CO = O=C(CCOCCOCCOCCOCCOCCOCCOCCOCCOCCOCCOCCOCCOCCOCCOCCOCCOCCC(=O)[*:2])[*:1]; CO(CH2CH2O)9CH2CH2CO = O=C(CCOCCOCCOCCOCCOCCOCCOCCOCCOCCC(=O)[*:2])[*:1]; PEG12 = NCCOCCOCCOCCOCCOCCOCCOCCOCCOCCOCCOCCOCCC(=O)O; NMeF = CN[C@@H](Cc1ccccc1)C(=O)O; Ahp(2) = CCCCC[C@H](N)C(=O)O; hLys = NCCCCC[C@H](N)C(=O)O; NMeC = CN[C@@H](CS)C(=O)O

For the assay, the target named is human c-Met protein (human, UniProt P08581 25-1390). Briefly: cell-based or functional assay.
Chain of human c-Met protein (P08581 25-1390): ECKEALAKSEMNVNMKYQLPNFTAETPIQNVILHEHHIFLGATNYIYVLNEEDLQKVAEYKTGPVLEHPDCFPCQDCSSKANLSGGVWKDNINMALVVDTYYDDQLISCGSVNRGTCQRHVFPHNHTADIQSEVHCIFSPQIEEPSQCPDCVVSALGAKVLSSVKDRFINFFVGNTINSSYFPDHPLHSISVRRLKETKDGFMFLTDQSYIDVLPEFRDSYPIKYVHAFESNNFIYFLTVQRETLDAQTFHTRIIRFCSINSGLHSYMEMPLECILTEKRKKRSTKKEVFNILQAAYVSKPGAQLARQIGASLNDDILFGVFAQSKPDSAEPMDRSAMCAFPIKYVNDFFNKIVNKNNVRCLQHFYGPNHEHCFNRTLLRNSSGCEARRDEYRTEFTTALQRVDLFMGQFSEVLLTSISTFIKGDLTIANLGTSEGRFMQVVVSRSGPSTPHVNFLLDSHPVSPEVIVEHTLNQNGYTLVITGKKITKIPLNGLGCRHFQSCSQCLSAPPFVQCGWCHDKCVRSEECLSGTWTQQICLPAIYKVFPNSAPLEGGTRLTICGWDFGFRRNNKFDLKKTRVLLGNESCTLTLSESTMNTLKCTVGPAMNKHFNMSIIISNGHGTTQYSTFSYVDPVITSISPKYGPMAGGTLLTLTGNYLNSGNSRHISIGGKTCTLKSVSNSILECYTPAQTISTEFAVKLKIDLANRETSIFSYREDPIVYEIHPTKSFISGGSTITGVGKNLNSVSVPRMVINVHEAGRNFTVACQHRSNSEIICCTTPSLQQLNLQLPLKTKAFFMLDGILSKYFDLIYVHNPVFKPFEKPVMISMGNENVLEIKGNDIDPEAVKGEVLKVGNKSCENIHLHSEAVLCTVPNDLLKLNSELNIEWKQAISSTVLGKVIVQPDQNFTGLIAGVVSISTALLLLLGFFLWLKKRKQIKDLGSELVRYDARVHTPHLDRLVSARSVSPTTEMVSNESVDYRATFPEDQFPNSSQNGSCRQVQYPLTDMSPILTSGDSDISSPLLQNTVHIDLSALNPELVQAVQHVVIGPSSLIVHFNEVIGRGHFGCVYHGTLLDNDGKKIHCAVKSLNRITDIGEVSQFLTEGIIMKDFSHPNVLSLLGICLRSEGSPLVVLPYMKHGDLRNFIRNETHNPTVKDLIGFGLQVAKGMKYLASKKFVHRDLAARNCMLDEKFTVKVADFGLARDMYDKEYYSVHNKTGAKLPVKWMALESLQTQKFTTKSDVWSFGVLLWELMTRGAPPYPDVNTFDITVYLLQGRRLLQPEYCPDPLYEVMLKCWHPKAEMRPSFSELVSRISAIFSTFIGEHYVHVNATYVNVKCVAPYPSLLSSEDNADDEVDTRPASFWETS

B1: Peptide complex No. 22 in Table 4 (peptide SEQ ID NO: 17, GFs_c-Met_0012_12p; linker SEQ ID NO: 35) (peptide)
peptide: {CH2CO}-[NMeF]VYVS[NMeF]DDD[Ahp(2)]PRWA[NMeC]
chain: [PEG12]-Lys-[PEG12]
modifications: thioether I:N-I:15 (inferred); also: homodimer: two cyclic peptides joined by linker PEG12c-K-PEG12c, peptide C-terminus on linker
As for B1, the “C-Met Agonist Activity (C50; nM): phospho-c-Met AlphaLISA, A431 cells” value (from here on “C-Met Agonist Activity (C50; nM)”) turned out to be 2.37 nM.

B2: Peptide complex No. 35 in Table 4 (peptide SEQ ID NO: 27, GFs_c-Met-00014302p; linker SEQ ID NO: 38) (peptide)
peptide: {CH2CO}-[NMeF]QAVS[NMeF]DPD[Ahp(2)]PRWS[NMeC]
chain: GK[CO(CH2)2(OCH2CH2)17CO]KG
modifications: thioether I:N-I:15 (inferred); also: homodimer of two cyclic peptides joined by linker G-K-cPEG17c-K-G, peptide C-terminus on linker
For B2, the “C-Met Agonist Activity (C50; nM)” value worked out at 0.92 nM.

B3: Peptide complex No. 30 in Table 4 (peptide SEQ ID NO: 24, GFs_c-Met-00014301p; linker SEQ ID NO: 36) (peptide)
peptide: {CH2CO}-[NMeF]EAVS[NMeF]DPD[Ahp(2)]PRWS[NMeC]
chain: GK[CO(CH2CH2O)9CH2CH2CO]KG
modifications: thioether I:N-I:15 (inferred); also: homodimer of two cyclic peptides joined by linker G-K-cPEG9c-K-G, peptide C-terminus on linker
On to B3, for which the “C-Met Agonist Activity (C50; nM)” value came to 0.81 nM.

B4: Peptide complex No. 27 in Table 4 (peptide SEQ ID NO: 23, GFs_c-Met-00014298p; linker SEQ ID NO: 38) (peptide)
peptide: {CH2CO}-[NMeF]EAVS[NMeF]DPD[Ahp(2)]PRWA[NMeC]
chain: GK[CO(CH2)2(OCH2CH2)17CO]KG
modifications: thioether I:N-I:15 (inferred); also: homodimer of two cyclic peptides joined by linker G-K-cPEG17c-K-G, peptide C-terminus on linker
Turning to B4, the “C-Met Agonist Activity (C50; nM)” value stood at 2.37 nM.

B5: Peptide complex No. 32 in Table 4 (peptide SEQ ID NO: 25, GFs_c-Met-00014296p; linker SEQ ID NO: 36) (peptide)
peptide: {CH2CO}-[NMeF]QAVS[NMeF]DSD[Ahp(2)]PRWA[NMeC]
chain: GK[CO(CH2CH2O)9CH2CH2CO]KG
modifications: thioether I:N-I:15 (inferred); also: homodimer of two cyclic peptides joined by linker G-K-cPEG9c-K-G, peptide C-terminus on linker
B5: the “C-Met Agonist Activity (C50; nM)” value came out at 0.61 nM.

B6: Peptide complex No. 38 in Table 4 (peptide SEQ ID NO: 28, GFs_c-Met-00014303p; linker SEQ ID NO: 36) (peptide)
peptide: {CH2CO}-[NMeF]TRVS[NMeF]DSD[Ahp(2)]PRWS[NMeC]
chain: GK[CO(CH2CH2O)9CH2CH2CO]KG
modifications: thioether I:N-I:15 (inferred); also: homodimer of two cyclic peptides joined by linker G-K-cPEG9c-K-G, peptide C-terminus on linker
Consider B6, for which the “C-Met Agonist Activity (C50; nM)” value came to 0.65 nM.

B7: Peptide complex No. 25 in Table 4 (peptide SEQ ID NO: 22, GFs_c-Met-00014295p; linker SEQ ID NO: 38) (peptide)
peptide: {CH2CO}-[NMeF]EAVS[NMeF]DSD[Ahp(2)]PRWA[NMeC]
chain: GK[CO(CH2)2(OCH2CH2)17CO]KG
modifications: thioether I:N-I:15 (inferred); also: homodimer of two cyclic peptides joined by linker G-K-cPEG17c-K-G, peptide C-terminus on linker
For B7, the “C-Met Agonist Activity (C50; nM)” value came out at 0.81 nM.

B8: Peptide complex No. 29 in Table 4 (peptide SEQ ID NO: 24, GFs_c-Met-00014301p; linker SEQ ID NO: 38) (peptide)
peptide: {CH2CO}-[NMeF]EAVS[NMeF]DPD[Ahp(2)]PRWS[NMeC]
chain: GK[CO(CH2)2(OCH2CH2)17CO]KG
modifications: thioether I:N-I:15 (inferred); also: homodimer of two cyclic peptides joined by linker G-K-cPEG17c-K-G, peptide C-terminus on linker
In the case of B8, the “C-Met Agonist Activity (C50; nM)” value stood at 0.88 nM.

B9: GFs c-Met-0012-PEG12 dimer (peptide SEQ ID NO: 2, GFs_c-Met_0012p; linker SEQ ID NO: 35) (peptide)
peptide: {CH2CO}-[NMeF]VYVS[NMeF]DDD[Ahp(2)]PRWS[NMeC]
chain: [PEG12]-Lys-[PEG12]
modifications: thioether I:N-I:15 (inferred); also: homodimer: two cyclic peptides joined by linker PEG12c-K-PEG12c, peptide C-terminus on linker
As to B9, the “C-Met Agonist Activity (C50; nM)” value came out at 0.76 nM.

B10: Peptide complex No. 23 in Table 4 (peptide SEQ ID NO: 9, GFs_c-Met_0012_4p; linker SEQ ID NO: 38) (peptide)
peptide: {CH2CO}-[NMeF]VAVS[NMeF]DDD[Ahp(2)]PRWS[NMeC]
chain: GK[CO(CH2)2(OCH2CH2)17CO]KG
modifications: thioether I:N-I:15 (inferred); also: homodimer of two cyclic peptides joined by linker G-K-cPEG17c-K-G, peptide C-terminus on linker
Turning to B10, the “C-Met Agonist Activity (C50; nM)” value turned out to be 0.91 nM.

B11: Peptide complex No. 26 in Table 4 (peptide SEQ ID NO: 22, GFs_c-Met-00014295p; linker SEQ ID NO: 36) (peptide)
peptide: {CH2CO}-[NMeF]EAVS[NMeF]DSD[Ahp(2)]PRWA[NMeC]
chain: GK[CO(CH2CH2O)9CH2CH2CO]KG
modifications: thioether I:N-I:15 (inferred); also: homodimer of two cyclic peptides joined by linker G-K-cPEG9c-K-G, peptide C-terminus on linker
As to B11, the “C-Met Agonist Activity (C50; nM)” value was found to be 0.75 nM.

B12: Peptide complex No. 34 in Table 4 (peptide SEQ ID NO: 26, GFs_c-Met-00014299p; linker SEQ ID NO: 36) (peptide)
peptide: {CH2CO}-[NMeF]QAVS[NMeF]DPD[Ahp(2)]PRWA[NMeC]
chain: GK[CO(CH2CH2O)9CH2CH2CO]KG
modifications: thioether I:N-I:15 (inferred); also: homodimer of two cyclic peptides joined by linker G-K-cPEG9c-K-G, peptide C-terminus on linker
For the molecule B12, the “C-Met Agonist Activity (C50; nM)” value is 1.26 nM.

B13: Peptide complex No. 20 in Table 4 (peptide SEQ ID NO: 11, GFs_c-Met_0012_6p; linker SEQ ID NO: 35) (peptide)
peptide: {CH2CO}-[NMeF]VYVS[NMeF]DPD[Ahp(2)]PRWS[NMeC]
chain: [PEG12]-Lys-[PEG12]
modifications: thioether I:N-I:15 (inferred); also: homodimer: two cyclic peptides joined by linker PEG12c-K-PEG12c, peptide C-terminus on linker
Turning to B13, the “C-Met Agonist Activity (C50; nM)” value came out at 2.22 nM.

B14: Peptide complex No. 33 in Table 4 (peptide SEQ ID NO: 26, GFs_c-Met-00014299p; linker SEQ ID NO: 38) (peptide)
peptide: {CH2CO}-[NMeF]QAVS[NMeF]DPD[Ahp(2)]PRWA[NMeC]
chain: GK[CO(CH2)2(OCH2CH2)17CO]KG
modifications: thioether I:N-I:15 (inferred); also: homodimer of two cyclic peptides joined by linker G-K-cPEG17c-K-G, peptide C-terminus on linker
Take B14: the “C-Met Agonist Activity (C50; nM)” value was 2.05 nM.

B15: Peptide complex No. 21 in Table 4 (peptide SEQ ID NO: 13, GFs_c-Met_0012_8p; linker SEQ ID NO: 35) (peptide)
peptide: {CH2CO}-[NMeF]VYVS[NMeF]DDD[hLys]PRWS[NMeC]
chain: [PEG12]-Lys-[PEG12]
modifications: thioether I:N-I:15 (inferred); also: homodimer: two cyclic peptides joined by linker PEG12c-K-PEG12c, peptide C-terminus on linker
B15: the “C-Met Agonist Activity (C50; nM)” value worked out at 2.17 nM.

B16: Peptide complex No. 36 in Table 4 (peptide SEQ ID NO: 27, GFs_c-Met-00014302p; linker SEQ ID NO: 36) (peptide)
peptide: {CH2CO}-[NMeF]QAVS[NMeF]DPD[Ahp(2)]PRWS[NMeC]
chain: GK[CO(CH2CH2O)9CH2CH2CO]KG
modifications: thioether I:N-I:15 (inferred); also: homodimer of two cyclic peptides joined by linker G-K-cPEG9c-K-G, peptide C-terminus on linker
With B16, the “C-Met Agonist Activity (C50; nM)” value worked out at 0.73 nM.

B17: Peptide complex No. 28 in Table 4 (peptide SEQ ID NO: 23, GFs_c-Met-00014298p; linker SEQ ID NO: 36) (peptide)
peptide: {CH2CO}-[NMeF]EAVS[NMeF]DPD[Ahp(2)]PRWA[NMeC]
chain: GK[CO(CH2CH2O)9CH2CH2CO]KG
modifications: thioether I:N-I:15 (inferred); also: homodimer of two cyclic peptides joined by linker G-K-cPEG9c-K-G, peptide C-terminus on linker
For the molecule B17, the “C-Met Agonist Activity (C50; nM)” value stood at 1.24 nM.

B18: Peptide complex No. 24 in Table 4 (peptide SEQ ID NO: 9, GFs_c-Met_0012_4p; linker SEQ ID NO: 36) (peptide)
peptide: {CH2CO}-[NMeF]VAVS[NMeF]DDD[Ahp(2)]PRWS[NMeC]
chain: GK[CO(CH2CH2O)9CH2CH2CO]KG
modifications: thioether I:N-I:15 (inferred); also: homodimer of two cyclic peptides joined by linker G-K-cPEG9c-K-G, peptide C-terminus on linker
Turning to B18, the “C-Met Agonist Activity (C50; nM)” value was found to be 1.27 nM.

B19: Peptide complex No. 19 in Table 4 (peptide SEQ ID NO: 9, GFs_c-Met_0012_4p; linker SEQ ID NO: 35) (peptide)
peptide: {CH2CO}-[NMeF]VAVS[NMeF]DDD[Ahp(2)]PRWS[NMeC]
chain: [PEG12]-Lys-[PEG12]
modifications: thioether I:N-I:15 (inferred); also: homodimer: two cyclic peptides joined by linker PEG12c-K-PEG12c, peptide C-terminus on linker
On to B19, for which the “C-Met Agonist Activity (C50; nM)” value is 1.22 nM.

B20: Peptide complex No. 31 in Table 4 (peptide SEQ ID NO: 25, GFs_c-Met-00014296p; linker SEQ ID NO: 38) (peptide)
peptide: {CH2CO}-[NMeF]QAVS[NMeF]DSD[Ahp(2)]PRWA[NMeC]
chain: GK[CO(CH2)2(OCH2CH2)17CO]KG
modifications: thioether I:N-I:15 (inferred); also: homodimer of two cyclic peptides joined by linker G-K-cPEG17c-K-G, peptide C-terminus on linker
Regarding B20, the “C-Met Agonist Activity (C50; nM)” value worked out at 0.68 nM.

B21: Peptide complex No. 37 in Table 4 (peptide SEQ ID NO: 28, GFs_c-Met-00014303p; linker SEQ ID NO: 38) (peptide)
peptide: {CH2CO}-[NMeF]TRVS[NMeF]DSD[Ahp(2)]PRWS[NMeC]
chain: GK[CO(CH2)2(OCH2CH2)17CO]KG
modifications: thioether I:N-I:15 (inferred); also: homodimer of two cyclic peptides joined by linker G-K-cPEG17c-K-G, peptide C-terminus on linker
For the molecule B21, the “C-Met Agonist Activity (C50; nM)” value came out at 0.49 nM.

B22: Peptide complex No. 18 in Table 4 (peptide SEQ ID NO: 6, GFs_c-Met_0012_1p; linker SEQ ID NO: 35) (peptide)
peptide: {CH2CO}-[NMeF]TYVS[NMeF]DDD[Ahp(2)]PRWS[NMeC]
chain: [PEG12]-Lys-[PEG12]
modifications: thioether I:N-I:15 (inferred); also: homodimer: two cyclic peptides joined by linker PEG12c-K-PEG12c, peptide C-terminus on linker
For B22, the “C-Met Agonist Activity (C50; nM)” value was 1.31 nM.
